Consider 11 molecules from patent US20250163164A1 (LANOVA MEDICINES DEVELOPMENT, published 2025).

Sequences and labels used below:
T1: human interleukin 13 receptor subunit alpha 2 (IL-13RA2) (human, UniProt Q14627 27-380)
T1 construct: whole, on cells; also called IL-13Rα2; CD213A2
T1 sequence (looked up): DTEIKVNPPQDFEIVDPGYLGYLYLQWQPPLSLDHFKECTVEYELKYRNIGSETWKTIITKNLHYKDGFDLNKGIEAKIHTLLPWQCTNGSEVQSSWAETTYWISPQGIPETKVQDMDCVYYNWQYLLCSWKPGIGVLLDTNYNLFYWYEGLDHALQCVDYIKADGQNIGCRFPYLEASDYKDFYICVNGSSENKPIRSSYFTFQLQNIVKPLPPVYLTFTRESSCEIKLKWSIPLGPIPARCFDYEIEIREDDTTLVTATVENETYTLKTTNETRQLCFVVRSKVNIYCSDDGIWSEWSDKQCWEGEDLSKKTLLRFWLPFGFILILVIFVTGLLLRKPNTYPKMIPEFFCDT

B1: 24G6D5 (antibody, V domains shown)
VH: QVQLQQSGPELVKPGTSVKMSCKASGYTFTSNYIHWVKQRPGQGLEWIGWIYPGDGSIKYNEKFKGKTTLTADKSSSTVYMLLSSLTSEDSAIYFCAVLRRLDYWGQGTTLTVSS
VL: DIVLTQSPATLSVTPGDSVSLSCRASQSISNNLHWYQQKSHESPRLLIKYASQSISGIPSRFSGSGSGTDFTLSINSVETEDFGMYFCQQSNSWPLTFGAGTKLELK
notes: purified mouse antibody
B2: xi54A4F7 hIgG1 (antibody, V domains shown)
VH: EVKLVESGGGLVKPGGSLKLSCAASGFTFSSYGMSWVRQTPEKRLEWVATISGGGSYTYYPDSVKGRFTISRDNAKNNLYLQMSSLRSEDTALYYCARRDLRSAMDHWGQGTSVTVSS
VL: DIVMTQSQKFMSTSVGDRVSVTCRASQNVDINVAWYQQKPGQSPKSLIYSASYRYSGVPDRFTGSGSGTDFTLTISNVQSEDLAEYFCQQYNSYPLTFGGGTKLEIR
B3: xi62A8D8 hIgG1 (antibody, V domains shown)
VH: B2 VH with H107Y
VL: B2 VL with R24K, S46A, Y86F, S93N, R107K
B4: xi74B5E4 hIgG1 (antibody, V domains shown)
VH: B2 VH with K19R, S31T, H107Y
VL: B2 VL with R24K, S46A, S93T, R107K
B5: xi73A11E2 hIgG1 (antibody, V domains shown)
VH: B2 VH with K76R, S84N, H107Y
VL: B2 VL with R24K, S46A, Y86F, R107K
B6: xi24G6D5 hIgG1 (antibody, V domains shown)
VH: B1 VH
VL: B1 VL
B7: xi51G2B3 hIgG1 (antibody, V domains shown)
VH: QVQLQQSGPELVKPGASVKISCKASGYAFSDSWMNWVKQRPGQGLEWIGRIYPGDGDTNYNGKFKGKATLTADKSSNTAYMQLSSLTSVDSAVYFCARSWNGSPWFPYWGQGTLVTVSA
VL: DVLMTQTPLSLPVSLGDQASISCRSSQTIAHRNGNTYLEWYLQKPGQSPKLLLYKVSNRFSGVPDRFSGSGSGTDFTLKISRVEAEDLGVYYCFQGSHVTWTFGGGTKLEIK
B8: xi57F8H3F1 hIgG1 (antibody, V domains shown)
VH: QVQLQQPGAELVRPGASVKLSCKASGYTFTNYWMNWIKQRPEQGLEWIGRIDPYETETHYNQKFRDRAILTVDKSSSTAFMQLSGLTSEDSAVYYCARGYGHYYGVDYWGQGTSVTVSS
VL: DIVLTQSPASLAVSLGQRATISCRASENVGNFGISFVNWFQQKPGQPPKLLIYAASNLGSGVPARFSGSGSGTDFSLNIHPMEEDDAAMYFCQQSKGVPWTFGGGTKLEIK
B9: xi34A5G9 hIgG1 (antibody, V domains shown)
VH: EVHLQQSGPELVKPGASVKISCKTSGYTFTEYTMHWVKQSHGKSLEWIGRINPNNGIAEYKQTFKDKATLAVDKSSSTAYMEFRSLTSEDSAVYYCARGEGYGYWFAYWGQGTLVTVSA
VL: DIQMTQSPASLSASVGETVTITCRTSDNIYSYLAWYQQRQGKSPQLLVSNARTLAEGVPSRFSGSGSGTQFSLKINSLQPEDFGIYYCQHHSGTPFTFGSGTNLEIE
B10: xi61H8C1 hIgG1 (antibody, V domains shown)
VH: QVQLQQSGAELARPGASVMLSCKASGYTFTSYWTQWIKQRPGQGLEGIGAIYPGDDDTSYNQKFKGKATLTADKSSSTAYMQLNSLTSEDSAVYYCARGATLLRPFPYWGQGTLVTVSA
VL: DIVMTQSHKFMSTSVGDRVSITCKASQDVSTAVAWYQQKPGQSPKLLIYSASYRYTGVPDRFTGSGSGTDFTFTISSVQAEDLAVYSCQQHYSIPPTFGGGTKLEIK
B11: xi62F6A8 hIgG1 (antibody, V domains shown)
VH: B10 VH with L4I, S31D, T34M, D56G, S59A, K65R, T87A, Y95F, Y108F
VL: B10 VL with T56A

Positions count from the first letter of the chain named. Several values for one entry are separate records, joined by “and”; a condition that tells them apart may be missing. Equal values may be shown once.

One assay addresses T1, human interleukin 13 receptor subunit …. Briefly: FACS on A375 cells. The protocol: A375 cells that endogenously expressed IL-13RA2 were harvested from flasks. 100 μl of 1×10⁶ cells/ml of cells were incubated with primary antibodies in 4-fold serial dilutions starting from 100 nM to 0.006 nM for 30 minutes on ice. After being washed with 200 μl of FACS buffer twice, cells were incubated with secondary antibody for 30 minutes on ice. Cells were washed with 200 μl of FACS buffer twice and analyzed by FACS.
As usually defined, the EC50 is the concentration needed to bring the measured effect to its halfway point. Low values mean an effect from little substance, high ones a need for much substance. As to B1, the EC50 worked out at 680 pM and the “Top (MFI)” value was determined as 226000 MFI.

The target is the same in the next assay. Briefly: FACS on A375 cells. The source holds these as a separate data set. On the procedure: A375 cells that endogenously expressed IL-13RA2, were harvested from flasks. 100 μl of 1×10⁶ cells/ml of cells were incubated with primary chimeric antibodies in 3-fold serial dilutions starting from 300 nM to 0.002 nM for 30 minutes on ice. After being washed with 200 μl of FACS buffer twice, cells were incubated with secondary antibody for 30 minutes on ice. Cells were washed with 200 μl of FACS buffer twice and analyzed by FACS.
As shown in FIG. 3 and Table 4, the chimeric antibodies bound to human IL-13RA2 at different EC50.
As for B2, the concentration giving a half-maximal response (EC50) turned out to be 630 pM and the “Top (MFI)” value came to 18000 MFI.
In the same order, the values of B3 are 820 pM and 17300 MFI.
Regarding B4, the concentration for a half-maximal effect (EC50) worked out at 700 pM and the “Top (MFI)” value is 18100 MFI.
For B5, the half-maximal effective concentration (EC50) was determined as 650 pM and the “Top (MFI)” value was 18000 MFI.
On to B6, for which a half-maximal effect (EC50) was put at 880 pM and the “Top (MFI)” value turned out to be 15200 MFI.
For B7, in that order: 640 pM and 15500 MFI.
For the molecule B8, the EC50 stood at 990 pM and the “Top (MFI)” value was found to be 17600 MFI.
B9: the EC50 worked out at 260 pM and the “Top (MFI)” value is 16700 MFI.
In the same order, the values of B10 are 470 pM and 15600 MFI.
In the case of B11, the EC50 was 480 pM and the “Top (MFI)” value was found to be 15800 MFI.

A further assay has the same target. Briefly: cell-based or functional assay.
As to B2, the “internalization EC50 (pHAb dye), A375 cells” value worked out at 0.66 nM; the “internalization EC50 (pHAb dye), CHO-K1/H_IL-13RA2 cells” value was 1.42 nM; the “internalization EC50 (pHAb dye), HEK-293/H IL-13RA2 cells” value is 1.65 nM; the “internalization Top (MFI), A375 cells” value was 5500 MFI. The “internalization Top (MFI), CHO-K1/H_IL-13RA2 cells” value was determined as 18000 MFI and the “internalization Top (MFI), HEK-293/H IL-13RA2 cells” value was found to be 22800 MFI.
For the molecule B3, the “internalization EC50 (pHAb dye), A375 cells” value was found to be 1 nM; the “internalization EC50 (pHAb dye), CHO-K1/H_IL-13RA2 cells” value was 1.58 nM; the “internalization EC50 (pHAb dye), HEK-293/H IL-13RA2 cells” value is 1.88 nM; the “internalization Top (MFI), A375 cells” value came to 5550 MFI. The “internalization Top (MFI), CHO-K1/H_IL-13RA2 cells” value was determined as 17200 MFI and the “internalization Top (MFI), HEK-293/H IL-13RA2 cells” value is 23300 MFI.
Consider B4, for which the “internalization EC50 (pHAb dye), A375 cells” value is about 0.437 nM; the “internalization EC50 (pHAb dye), CHO-K1/H_IL-13RA2 cells” value is 0.91 nM; the “internalization EC50 (pHAb dye), HEK-293/H IL-13RA2 cells” value was 1.31 nM; the “internalization Top (MFI), A375 cells” value was 5170 MFI. The “internalization Top (MFI), CHO-K1/H_IL-13RA2 cells” value came out at 17700 MFI and the “internalization Top (MFI), HEK-293/H IL-13RA2 cells” value came out at 21600 MFI.
B5: the “internalization EC50 (pHAb dye), A375 cells” value worked out at 0.77 nM; the “internalization EC50 (pHAb dye), CHO-K1/H_IL-13RA2 cells” value came out at 1.52 nM; the “internalization EC50 (pHAb dye), HEK-293/H IL-13RA2 cells” value was found to be 1.98 nM; the “internalization Top (MFI), A375 cells” value was found to be 4310 MFI. The “internalization Top (MFI), CHO-K1/H_IL-13RA2 cells” value was found to be 17900 MFI and the “internalization Top (MFI), HEK-293/H IL-13RA2 cells” value is 23500 MFI.
Consider B6, for which the “internalization EC50 (pHAb dye), A375 cells” value came out at 0.61 nM; the “internalization EC50 (pHAb dye), CHO-K1/H_IL-13RA2 cells” value was 0.86 nM; the “internalization EC50 (pHAb dye), HEK-293/H IL-13RA2 cells” value turned out to be 2.76 nM; the “internalization Top (MFI), A375 cells” value is 4110 MFI. The “internalization Top (MFI), CHO-K1/H_IL-13RA2 cells” value worked out at 12700 MFI and the “internalization Top (MFI), HEK-293/H IL-13RA2 cells” value was 23700 MFI.
In the case of B7, the “internalization EC50 (pHAb dye), A375 cells” value turned out to be 1.32 nM; the “internalization EC50 (pHAb dye), CHO-K1/H_IL-13RA2 cells” value came to 1.84 nM; the “internalization EC50 (pHAb dye), HEK-293/H IL-13RA2 cells” value is 3.84 nM; the “internalization Top (MFI), A375 cells” value came to 6380 MFI. Besides, the “internalization Top (MFI), CHO-K1/H_IL-13RA2 cells” value was determined as 17100 MFI and the “internalization Top (MFI), HEK-293/H IL-13RA2 cells” value came out at 28900 MFI.
For the molecule B8, the “internalization EC50 (pHAb dye), A375 cells” value came out at 0.74 nM; the “internalization EC50 (pHAb dye), CHO-K1/H_IL-13RA2 cells” value was found to be 2.37 nM; the “internalization EC50 (pHAb dye), HEK-293/H IL-13RA2 cells” value amounted to 2.42 nM; the “internalization Top (MFI), A375 cells” value stood at 2720 MFI. In addition, the “internalization Top (MFI), CHO-K1/H_IL-13RA2 cells” value was 19200 MFI and the “internalization Top (MFI), HEK-293/H IL-13RA2 cells” value is 26000 MFI.
In the case of B9, the “internalization EC50 (pHAb dye), A375 cells” value amounted to 3.63 nM; the “internalization EC50 (pHAb dye), CHO-K1/H_IL-13RA2 cells” value came to 1.38 nM; the “internalization EC50 (pHAb dye), HEK-293/H IL-13RA2 cells” value turned out to be 1.78 nM; the “internalization Top (MFI), A375 cells” value was 8610 MFI. The “internalization Top (MFI), CHO-K1/H_IL-13RA2 cells” value amounted to 13900 MFI and the “internalization Top (MFI), HEK-293/H IL-13RA2 cells” value is 25700 MFI.
With B10, the “internalization EC50 (pHAb dye), A375 cells” value is about 0.441 nM; the “internalization EC50 (pHAb dye), CHO-K1/H_IL-13RA2 cells” value was 1.02 nM; the “internalization EC50 (pHAb dye), HEK-293/H IL-13RA2 cells” value worked out at 1.49 nM; the “internalization Top (MFI), A375 cells” value came out at 3820 MFI. The “internalization Top (MFI), CHO-K1/H_IL-13RA2 cells” value was determined as 16900 MFI and the “internalization Top (MFI), HEK-293/H IL-13RA2 cells” value stood at 24700 MFI.
With B11, the “internalization EC50 (pHAb dye), A375 cells” value is about 0.447 nM; the “internalization EC50 (pHAb dye), CHO-K1/H_IL-13RA2 cells” value was found to be 1.17 nM; the “internalization EC50 (pHAb dye), HEK-293/H IL-13RA2 cells” value was found to be 1.73 nM; the “internalization Top (MFI), A375 cells” value came to 4530 MFI. Further, the “internalization Top (MFI), CHO-K1/H_IL-13RA2 cells” value came out at 15900 MFI and the “internalization Top (MFI), HEK-293/H IL-13RA2 cells” value came to 22300 MFI.

A further assay has the same target. As to the kind of experiment: FACS on A375 cells. This is another data set of the same source. The protocol:
A375 cells that endogenously expressed IL-13RA2, were harvested from flasks. 100 μl of 1×10⁶ cells/ml of cells were incubated with primary humanized antibodies in 4-fold serial dilutions starting from 200 nM to 0.003 nM for 30 minutes on ice. After being washed with 200 μl of FACS buffer twice, cells were incubated with secondary antibody for 30 minutes on ice. Cells were washed with 200 μl of FACS buffer twice and analyzed by FACS.
B5: the concentration giving a half-maximal response (EC50) is 260 pM and 359 pM and 450 pM.
On to B8, for which the concentration giving a half-maximal response (EC50) is 330 pM and 410 pM.
On to B10, for which the EC50 was 160 pM.
